The values below come from article PMC5145805, “Structural Basis for Selective Interaction between the ESCRT Regulator HD-PTP and UBAP1” (Structure(London, England:1993), 2016).

Assay [1] has as its system FKBP-HD-PTPBro1-CC in HeLa cells. Nature of the assay: Mitochondrial targeting (FKBP-HD-PTPBro1-CC / Mito-FRB relocalization, immunofluorescence). Format: cell-based. The following applies: rapamycin 1 μM, 3 hr, FKBP-HD-PTPBro1-CC with mito-FRB. The method, then: Mitochondrial targeting experiments were performed as previously described ([Sato et al., 2015]). HeLa cells were transiently transfected with HD-PTPBro1-CC containing an N-terminal FKBP sequence and a C-terminal myc tag (cloned into pcDNA5), Mito-FRB (a gift from Martin Lowe, Manchester, UK), and either GFP, WT UBAP1-GFP, or F268S UBAP1-GFP (in pEGFP). Mitochondrial relocation of FKBP-HD-PTPBro1-CC-myc was induced by addition of 1 μM rapamycin (Sigma) for 3 hr. Cells were then prepared for immunofluorescence microscopy as above. Mitochondrial relocation of GFP-tagged constructs was scored in three independent experiments (100 cells counted per experiment).

Assay [2] deals with T1, HD-PTPCC (Homo sapiens, UniProt Q9H3S7).
T1 construct: HD-PTPCC (363–712), and AlixV (358–702) were subcloned into a pNIC28a-Bsa4 vector; made in house; host or cells: Escherichia coli BL21(DE3)
T1 sequence (Q9H3S7 363-712): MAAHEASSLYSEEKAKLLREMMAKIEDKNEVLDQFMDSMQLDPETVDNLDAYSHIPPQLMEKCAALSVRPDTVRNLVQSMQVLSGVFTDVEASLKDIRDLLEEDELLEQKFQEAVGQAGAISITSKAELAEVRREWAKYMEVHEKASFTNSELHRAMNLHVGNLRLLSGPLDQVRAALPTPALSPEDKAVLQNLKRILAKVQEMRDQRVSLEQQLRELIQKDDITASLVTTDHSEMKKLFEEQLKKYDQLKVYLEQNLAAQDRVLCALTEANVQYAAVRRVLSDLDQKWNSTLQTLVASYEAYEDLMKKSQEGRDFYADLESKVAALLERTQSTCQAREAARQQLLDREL
Nature of the assay: Co-immunoprecipitation of in vitro translated full-length UBAP1 with HD-PTP. The assay is classed as binding. The conditions noted are these: 35S-labelled in vitro translated UBAP1, bacterially expressed HD-PTP, anti-His, 4°C, pH 7.4. The method, then:
UBAP1-strep encoded on a pTriex5 vector ([Stefani et al., 2011]) was amplified using Pwo Polymerase (Roche). UBAP1 RNA was synthesized from the PCR product using T7 RNA polymerase (Promega). Protein was translated in nuclease-treated rabbit reticulocyte lysate (Promega) containing ^35S-methionine (PerkinElmer), and 100 units of RNasin (Promega) for 1 hr at 30°C, followed by 10 min in the presence of 1 mM puromycin. Then 20 μL of translated protein was incubated with 5 μg His6- HD-PTPBro1-CC in 250 μL of immunoprecipitation (IP) buffer (20 mM HEPES [pH 7.4], 100 mM NaCl, 1 mM MgCl2, 1% [w/v] Triton X-100) for 2 hr at 4°C, then overnight with 3 μL of anti-His antibody (Clone HIS-1, Sigma). Samples were incubated with 20 μL of protein A-Sepharose beads (Invitrogen) for 2 hr at 4°C, then washed three times in IP buffer.

Assay [3] has as its system AlixBro1-V. The following applies: ref Stefani et al., 2011, cited from earlier work. An excerpt: We believe that the differences in the architecture and binding interface features observed between Alix and HD-PTP are critical in determining ligand-binding selectivity. […] The conserved FYX2L motif is therefore necessary for binding but insufficient to determine specific selectivity between Bro1 proteins and their biological partners. Instead, b ... || AlixV has been reported to be flexible in solution and therefore able to adopt a more open conformation ([Pashkova et al., 2013], [Pires et al., 2009]).

Assay [4] concerns the target T1, HD-PTPCC. Put plainly: Biosensor (SPR) binding to immobilized HD-PTPCC. The conditions noted are these: 25°C. The method, then: (§1) To further characterize this interaction, immobilized HD-PTPCC, HD-PTPBro1-CC, and HD-PTPBro1 were tested in biosensor binding experiments (SPR) using a UBAP1 peptide containing residues 261–280 (UBAP1C) as the analyte.
(§2) Binding studies were performed at 25°C on a multiplex system ProteOn XPR36 (Bio-Rad Laboratories) in 10 mM HEPES (pH 7.4), 150 mM NaCl, 0.05% Tween 20 as running buffer, with 50–100 μg/mL of protein immobilized on an HTE chip (Bio-Rad Laboratories). Peptide solutions (50 μL) were injected at 100 μL/min. Data were analyzed with ProteOn Manager software (Bio-Rad Laboratories), using the equilibrium binding model: Response = [A] × Rmax/([A] + KD) where [A] is the analyte concentration and Rmax is the maximum response.

Assay [5] has as its target T2, HD-PTPBro1-CC (Homo sapiens, UniProt Q9H3S7).
T2 construct: HD-PTPBro1-CC (1–714) was cloned into a pET28a vector with restriction sites Nde1 and Xho1; made in house; host or cells: Escherichia coli BL21(DE3)
T2 sequence (Q9H3S7 1-714): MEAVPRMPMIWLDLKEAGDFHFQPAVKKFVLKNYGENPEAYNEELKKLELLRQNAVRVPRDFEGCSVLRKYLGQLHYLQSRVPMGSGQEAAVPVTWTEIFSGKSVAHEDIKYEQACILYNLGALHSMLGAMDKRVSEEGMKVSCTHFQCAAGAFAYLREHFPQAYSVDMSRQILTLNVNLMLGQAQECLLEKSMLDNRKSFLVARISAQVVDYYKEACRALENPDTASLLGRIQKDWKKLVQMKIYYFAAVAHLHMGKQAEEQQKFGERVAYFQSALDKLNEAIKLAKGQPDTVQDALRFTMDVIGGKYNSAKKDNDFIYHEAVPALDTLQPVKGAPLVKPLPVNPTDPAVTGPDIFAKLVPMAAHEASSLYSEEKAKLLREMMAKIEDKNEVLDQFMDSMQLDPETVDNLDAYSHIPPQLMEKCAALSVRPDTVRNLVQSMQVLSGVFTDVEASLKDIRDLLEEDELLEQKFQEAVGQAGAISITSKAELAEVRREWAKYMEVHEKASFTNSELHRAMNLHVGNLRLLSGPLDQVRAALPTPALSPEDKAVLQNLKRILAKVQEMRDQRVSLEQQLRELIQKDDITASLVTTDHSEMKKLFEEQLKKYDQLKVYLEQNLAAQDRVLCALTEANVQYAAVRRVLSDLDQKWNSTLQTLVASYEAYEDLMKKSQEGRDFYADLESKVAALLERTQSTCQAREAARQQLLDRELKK
Put plainly: Biosensor (SPR) binding to immobilized HD-PTPBro1-CC. The conditions noted are these: 25°C, pH 7.4. The method, then: as §1, §2

Where two headings read alike, the source gives them in different places.

Consider `CO[C@H]1C[C@@H]2CC[C@@H](C)[C@@](O)(O2)C(=O)C(=O)N2CCCC[C@H]2C(=O)O[C@H]([C@H](C)C[C@@H]2CC[C@@H](O)[C@H](OC)C2)CC(=O)[C@H](C)/C=C(\C)[C@@H](O)[C@@H](OC)C(=O)[C@H](C)C[C@H](C)/C=C/C=C/C=C/1C` [rapamycin, reference compound], for which the “relocalization of HD-PTPBro1-CC to mitochondria” value in assay [1] is listed as “efficient relocalization”.
Turning to “UBAP1: full-length UBAP1, ESCRT-I subunit (SNIKSLSFPKLDSDDSNQKT)”, the “co-immunoprecipitation with HD-PTP” value in assay [2] is “confirmed the interaction”. Also, the “Y2H binding of full-length UBAP1 to AlixBro1-V” value in assay [3] is “no evidence”; in assay [3] (listed as UABP1), “lack of binding”.
On to “UBAP1C peptide containing the F268S substitution: UBAP1C peptide containing the F268S substitution (SNIKSLSSPKLDSDDSNQKT)”, for which the “binding to HD-PTPCC (qualitative)” value was “abolished interaction” in assay [4] (pH 7.4) and “abolished binding” in assay [4] (pH 7.4, listed as UBAP1 F268S). Moreover, the “binding to HD-PTPBro1-CC (qualitative)” value in assay [5] is recorded as “abolished interaction”.
